Laboratory results reported in the supplement of paper PMC9170038.

Tested on: MS2 coat protein
Experiment: apparent KD of MS2 coat protein; designed switch direction (-1 OFF switch, 1 ON switch): -1; higher = weaker reporter binding
Outline: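 Designed RNA switches sharing common flanks were transcribed on Illumina chips by stalled E. coli RNA polymerase. They were titrated with SNAP-549-labelled MS2 coat protein, from 0.7 or 1.5 nM doubling to 3 µM, in Tris-HCl pH 7.5 buffer with KCl, MgCl2, BSA, DTT, tRNA and Tween-20. Titrations ran without input, with 200 uM small-molecule ligand, or with an oligonucleotide input. The apparent KD of each design is the median over its clusters, after curve-fitting of normalised cluster fluorescence.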

[1] = input ligand: microRNA oligo, concentration not stated
[2] = Eterna round: R95, input ligand: FMN 200 uM
[3] = Eterna round: R95, input ligand: microRNA oligo, concentration not stated
[4] = Eterna round: R95, input ligand: none

Sequence | apparent KD of MS2 coat protein (input ligand: FMN 200 uM) [nM] | apparent KD of MS2 coat protein [1] [nM] | apparent KD of MS2 coat protein (input ligand: none) [nM] | apparent KD of MS2 coat protein [2] [nM] | apparent KD of MS2 coat protein [3] [nM] | apparent KD of MS2 coat protein [4] [nM]
GCACUUGAACAUGAGGAUCACCCAUGUGUUUUUCUUGUUCGGCAGGAUAUCGUCUAGCGCCAGGACGAGAAGGGCCAAUAAAAG [Ratiarveed] (Eterna round: R96, puzzle: Exclusion NG 3) | 77.8 | 61 | 141 |  |  | 
CACCGUUACGUAGGAUAUGUUACAUGAGGAUCACCCAUGUAAUAAAUGAGAAUUUCGAAUGUAAUACAGAAGGACGGAAUCGGC [Ostracism 70 - Jieux - Exclusion NG 2] (Eterna round: R96, puzzle: Exclusion NG 2) | 53.3 | 26 | 32 |  |  | 
GAGGUCGCAGGAUAUAGUACAUAGAACAUGAGGAUCACCCAUGUAGCGGGAGGUUCUAUAUUAGAAGGGUGAAGUC [Eternabot (L2) Solution 97] (Eterna round: R97, puzzle: Exclusion 5) | 572 |  | 494 |  |  | 
AGCGAGGCAGGAUAUACAUGAGGAUCACCCAUGUACUUGUAUGGCGUGGAACAUCGUGGUAGAAGGGCCGCGCC [EX3 #79] (Eterna round: R97, puzzle: Exclusion 3) | 33.5 |  | 23.7 |  |  | 
UUUAGUUCAGGAUAUGUAGAUUUUAACAUGAGGAUCACCCAUGUAGAUCCUGAAUUAACUACAGAAGGGAACAUUA [Exclusion 5: 2:d] (Eterna round: R96, puzzle: Exclusion 5) | 81.1 | 20.3 | 24.7 |  |  | 
AGUACUAACACGAAAGUGUUAGUACAAUAAGCUAGUGGAACAUGAGGAUCACCCAUGUCCUCAUUAGCUCGUCUUAU [Mat - Sensor v3 - Turn-off var 2 - D33] (puzzle: Sensor v3, turn-off variant 2) |  |  |  | 16.3 | 36.6 | 13.4
GGGAUGUGAGGAUAUCGAGGUGCAAAGCACCUAAAAGAAAACGAGAAGGCACAUGAGGAUCACCCAUGUAAUAC [Xeinle] (puzzle: Exclusion 4) |  |  |  | 105 | 26 | 26
UAGGUACAUGAGGAUCACCCAUGUGAGGAUAUAGUUGAAGAUUGCGAGAGGGAGAGGACUAGAAGGCACAGUGG [JR_Exclu1_Sub037] (puzzle: Exclusion 1) |  |  |  |  | 40.9 | 
ACAAGCUAAGUGCUCGGUCCGGGAGACACGUGAUCAGCGACAUGAGGAUCACCCAUGUAAUAGGAGCUUAAAACGUU [solution 46] (Eterna round: R96, puzzle: Sensor v2, turn-off variant 2) | 15 | 20.1 | 19.7 |  |  | 
AGCAGCCAAUCAGGAUAUACUUUCAGGUGAAGCGUCGCGGGCGAUAACAUGAGGAUCACCCAUGUGUAGAAGGGAUGCGCAAAC [Eternabot solution 39] (Eterna round: R96, puzzle: Exclusion NG 2) | 45.8 | 30.3 | 41.2 |  |  | 
ACAUGAGGAUCACCCAUGUCCGGCUGGUCCGUCUCGGCUGUCGAGGAUAUAGCUCGGUGUCCGCGCUAGAAGGUGGGAGCCGGC [Aenatbe mod 72] (Eterna round: R96, puzzle: Exclusion NG 3) | 212 | 134 | 217 |  |  | 
GGCCCGCGCGGGCCCGGGCCCGGGACAUGAGGAUCACCCAUGUAGGAUAUCCGGCCCGCCGGGCCGGAGAAGGACAUGGGCCCG [-48.9, -45.2 kcal, 17% A] (Eterna round: R96, puzzle: Exclusion NG 3) | 34.1 | 11.1 | 16.9 |  |  | 
UUAUAAACAUAGGAUAUCGAAUAAAUUAUUUAACGAGAAGGAUGAACAUGAGGAUCACCCAUGUGGUAUCAUGG [Mat - Exclusion 6 - JL Mod - D30] (puzzle: Exclusion 6) |  |  |  | 170 | 228 | 398
UAAUAUCUGCAGGAUAUCGGUGUAGCACGCGUAUGAGAAGGGCAGACAUGAGGAUCACCCAUGUAUAGGGUCCG [BotMod 1 - Jieux - Exclusion 6] (Eterna round: R97, puzzle: Exclusion 6) | 246 |  | 49.4 |  |  | 
AGAAAACGAGGAUAUACGUGCAUAUUCUCGCCCAAUGGGCAACAUGAGGAUCACCCAUGUAGAAGGCGUAAAGA [Dienoror] (puzzle: Exclusion 2) |  |  |  |  | 34.6 | 
CCGCAUAAGCAGGAUAUCGUAUCGGAAACGAUACGAGAAGGGUUAACAUGAGGAUCACCCAUGUUCCUUAACGG [Fiskers Ex 6 - 30] (puzzle: Exclusion 6) |  |  |  |  | 17.5 | 
GACACCAAAGGAUAUACAUGAGGAUCACCCAUGUGCUGCAAAAGCUGAGCUCAAAUGUGUAGAAGGUUGAAAUA [Eternabot (Original) Solution 40] (Eterna round: R97, puzzle: Exclusion 3) | 39 |  | 31.6 |  |  | 

Sequence | apparent KD of MS2 coat protein (input ligand: FMN 200 uM) [nM] | apparent KD of MS2 coat protein [1] [nM] | apparent KD of MS2 coat protein (input ligand: none) [nM] | apparent KD of MS2 coat protein [2] [nM] | apparent KD of MS2 coat protein [3] [nM] | apparent KD of MS2 coat protein [4] [nM]
GUCUUGUCAGGAUAUCUUACAUAACCAUCGUAGUUACAAUUGGAGAAGGGACAUGAGGAUCACCCAUGUUUGCG [tap-tap-tappy32] (Eterna round: R97, puzzle: Exclusion 4) | 34.8 |  | 26.6 |  |  | 
ACAAGCGCGAAAGUCUUAUACAUGAGGAUCACCCAUGUUCUCAAGGUCUUAUGUACUGACACGAUUACUCGUCUUAU [AK-miRNA-r3-4] (Eterna round: R97, puzzle: Sensor, turn-off variant 1) | 117 |  | 112 |  |  | 
UUUAACAAGCCAGAUCCUCACAUGAGGAUCACCCAUGUGCUCGUCUGAUUUUGUACUAUCAUGUGAGUGAUAGUGUU [Level Boss var2-06] (Eterna round: R96, puzzle: Sensor v3, turn-off variant 1) | 200 | 56.9 | 205 |  |  | 
AGAUCCUGAGUCAGGAUAUAGAGGCGAAAGCCUGGCUAGAAGGGACAUGAGGAUCACCCAUGUGGGUUCGUGCC [Geariat] (puzzle: Brourd's mod of Exclusion 4) |  |  |  |  | 19.6 | 
AAUAUCGUAGGAUAUUAGUGCUCAGACAUGAGGAUCACCCAUGUUUGGUGGGUUGGAGAAUGAGAAGGGCGAUGAA [EX5 #17] (Eterna round: R97, puzzle: Exclusion 5) | 376 |  | 687 |  |  | 
CGGUAGUGCUCAGGAUAUACAUGAGGAUCACCCAUGUAACUAGAAUCGGUCGUCCGAUCAGUGGUGUAGAAGGGAGGCUGGCUG [random 1, A 25%] (Eterna round: R96, puzzle: Exclusion NG 2) | 32.1 | 22 | 31.5 |  |  | 
UUUUACAGGCUUAGAUCCUACAUGAGGAUCACCCAUGUGGUCCGGUGACGUGAGUCACCGGACUAAGCUCGUCUUGU [JL TOV1 3.72] (Eterna round: R97, puzzle: Sensor, turn-off variant 1) | 156 |  | 143 |  |  | 
UUGUUAUGUGUAGGAUAUGCGUAUUAUUAUUAUGCAGAAGGACAUGAGGAUCACCCAUGUGUAUUGUUAUUAUAUAUUAUAUAU [Title] (Eterna round: R96, puzzle: Exclusion NG 1) | 32.1 | 16 | 21.9 |  |  | 
AGCUUUUUGCUCGUCUUAUACAUGAGGAUCACCCAUGUAUUGGACCACAUCGAUAGAUGUGGACCAAGAAGCAUGGG [Omdei Mir OFFv1 C1] (Eterna round: R97, puzzle: Sensor, turn-off variant 1) | 195 |  | 109 |  |  | 
UAGAAGGUAGGAUAUACGAAUAAAUAGGGUAGUAAGAAGACACAUGAGGAUCACCCAUGUAGAAGGACCAAGAU [Mat - Exclusion 2 - Mod of my Tesla design - D33] (puzzle: Exclusion 2) |  |  |  | 33.5 | 19.4 | 20.6
UUAAUUAAUGUGAGGAUAUCUAGAGCCUCGGCUCUAGAGAAGGCACAUGAGGAUCACCCAUGUCUCAAUUAAUU [BmEx4/2-E2] (Eterna round: R97, puzzle: Brourd's mod of Exclusion 4) | 33.9 |  | 23.6 |  |  | 
GGAAGAAAGCGAGGAUAUCGAUAAGAAGAAGAAGAUAAGGUGACAUGAGGAUCACCCAUGUAAUACGAGAAGGCGCGACCUGCG [i'd better go back to my homework] (Eterna round: R96, puzzle: Exclusion NG 2) | 215 | 147 | 197 |  |  | 
UUCUUGGCAGGAUAUGCUUUUUUAGACAUGAGGAUCACCCAUGUGUUUAUUUUUUUUUUUGCAGAAGGGCCUUAAU [JR_E5_Sub043] (puzzle: Exclusion 5) |  |  |  |  | 26.9 | 
AAGUAACAUGAGGAUCACCCAUGUUAGGAUAUCUCGGCCGCGGCAUCGCCGCGAAACCAGAGAAGGAGCGGGUG [Erargeisar] (Eterna round: R97, puzzle: Exclusion 1) | 206 |  | 160 |  |  | 
UUAUUAUAUGUAGGAUAUGCAUAUUGUUGUUAUGCAGAAGGACAUGAGGAUCACCCAUGUAUAUUAUUGUUAUAUAUUGUAUAU [Title] (Eterna round: R96, puzzle: Exclusion NG 1) |  | 18.2 |  |  |  | 
CUUGUUUAUGUAGGAUAUGCCUGGCGUGCCUUUGCAGAAGGACAUGAGGAUCACCCAUGUAGUAUGAGGCUUACCCUUGUCGCC [salish99_ExNG1_r04_120] (Eterna round: R96, puzzle: Exclusion NG 1) |  | 19.9 |  |  |  | 
